Measured values taken from US6506587B2, “TRF 1 binding protein, methods of use thereof” (The Rockefeller University, priority 1998, dated 2003).
Entries after “also recorded” stand apart in the source; their conditions may differ.

Legend:
[1] = target: T1, tankyrase (Homo sapiens, UniProt O95271); assay: PARP assay with baculovirus-derived tankyrase and [32P]NAD+; assay type: biochemical; settings: 1 mM 3AB; 4 μg tankyrase, without or with 4 μg TRF1; 1.3 μM [32P]NAD+
T1 construct: [His]6 (pFastBac HTb) (N); made in house; host or cells: SF21 insect cells (baculovirus)
T1 sequence (O95271 1-1327): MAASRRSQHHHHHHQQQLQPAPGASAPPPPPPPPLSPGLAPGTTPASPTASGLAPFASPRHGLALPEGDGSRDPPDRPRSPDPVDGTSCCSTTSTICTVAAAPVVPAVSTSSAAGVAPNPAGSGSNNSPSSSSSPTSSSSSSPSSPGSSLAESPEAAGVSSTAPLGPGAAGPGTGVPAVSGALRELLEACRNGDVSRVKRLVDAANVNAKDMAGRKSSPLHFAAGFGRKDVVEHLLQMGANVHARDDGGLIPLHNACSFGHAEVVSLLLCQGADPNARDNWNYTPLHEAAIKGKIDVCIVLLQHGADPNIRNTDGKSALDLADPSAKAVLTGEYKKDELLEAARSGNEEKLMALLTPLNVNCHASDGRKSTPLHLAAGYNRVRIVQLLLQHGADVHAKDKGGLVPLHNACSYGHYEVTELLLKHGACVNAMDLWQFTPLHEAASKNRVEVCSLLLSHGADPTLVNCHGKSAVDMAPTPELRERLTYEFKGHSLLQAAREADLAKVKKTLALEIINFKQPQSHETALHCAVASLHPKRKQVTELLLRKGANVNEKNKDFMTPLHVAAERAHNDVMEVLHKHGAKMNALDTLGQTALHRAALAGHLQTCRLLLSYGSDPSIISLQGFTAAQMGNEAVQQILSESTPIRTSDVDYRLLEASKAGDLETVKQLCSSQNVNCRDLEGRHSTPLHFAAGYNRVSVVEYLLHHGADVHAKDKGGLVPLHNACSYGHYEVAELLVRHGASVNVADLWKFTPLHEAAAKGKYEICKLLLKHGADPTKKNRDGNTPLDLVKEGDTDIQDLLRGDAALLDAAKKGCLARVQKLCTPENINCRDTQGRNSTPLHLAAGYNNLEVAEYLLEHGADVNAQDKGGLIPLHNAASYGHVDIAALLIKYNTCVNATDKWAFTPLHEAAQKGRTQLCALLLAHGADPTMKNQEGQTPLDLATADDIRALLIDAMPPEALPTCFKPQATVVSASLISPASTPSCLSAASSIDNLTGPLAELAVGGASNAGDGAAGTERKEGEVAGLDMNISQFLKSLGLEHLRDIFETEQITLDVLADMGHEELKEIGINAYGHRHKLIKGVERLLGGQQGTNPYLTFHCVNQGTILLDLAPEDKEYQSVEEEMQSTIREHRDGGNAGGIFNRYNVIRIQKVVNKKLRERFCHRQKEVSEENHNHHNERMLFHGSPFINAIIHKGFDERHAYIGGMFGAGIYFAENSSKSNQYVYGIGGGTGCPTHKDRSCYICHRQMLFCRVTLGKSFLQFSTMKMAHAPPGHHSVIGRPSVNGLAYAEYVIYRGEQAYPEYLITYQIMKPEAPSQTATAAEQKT
Procedure: Reactions containing 4 μg tankyrase (+), without (−) or with (+) 4 μg TRF 1, and 1.3 μM [^32P]NAD^+ were incubated without (−) or with (+) 1 mM 3AB and processed as in FIG. 9A.
PARP assays were performed with baculovirus-derived tankyrase essentially as described in [Simonin et al. 268:8529 (1993)] but without addition of DNA. To make baculovirus-derived protein, an N-terminally [His]6-tagged fusion protein of human tankyrase was generated in the expression vector pFastBac HTb (Gibco BRL, Grand Island) and used to generate a recombinant plasmid in DH10Bac E. coli. The recombinant DNA was used to transfect SF21 insect cells and recombinant virus was isolated and amplified. Protein was purified as described for baculovirus-derived TRF1 [Bianchi et al., EMBO J. 16:1785 (1997)]. Samples containing tankyrase (0-4 μg) and TRF1 (0-4 μg) [Bianchi et al., EMBO J. 16:1785 (1997)] were incubated for 30 minutes at 25° C. in 0.1 ml of assay buffer containing 50 mM Tris-HCl (pH 8.0), 4 mM Mg Cl2, 0.2 mM dithiothreitol (DTT), 1.3 μM [^32P]NAD+ (4 μCi) and varying concentrations of unlabeled NAD+ (0-1 mM). Reactions were stopped by the addition of 20% trichloroacetic acid (TCA). Acid-insoluble proteins were collected by centrifugation, rinsed in 5% TCA, suspended in Laemmli loading buffer, and fractionated on SDS-PAGE. Proteins were visualized by Coomassie-Blue stain and autoradiography. […]

[2] = target: T2, TRF1 (Homo sapiens, UniProt P54274); assay: Yeast two-hybrid analysis, β-galactosidase assay; assay type: cell-based; settings: with amino-terminal acidic domain of TRF1 (LexAd68-C); 12.0 units with GAD lacking tankyrase sequences; average of three transformations
T2 construct: expressed in transfected cells; host or cells: yeast strain L40
Procedure: (§1) Proteins were immunoprecipitated with an unrelated rabbit serum as a control (C) (lanes 1 and 4), anti-tankyrase antibodies (tankyrase) (lanes 2 and 6) or anti-TRF1 antibody 371 (TRF1) (lanes 3 and 5). Samples were processed, suspended in Laemmli buffer and divided in half. One set was not heated (left panel) and the other was heated at 100° C. for 5 min (right panel). Proteins were fractionated on 10% SDS-PAGE, transferred to nitrocellulose and probed with anti-TRF1 antibody 371 (left panel) or anti-tankyrase antibodies (right panel). […] The values represent an average of three independent transformations. Values<0.01 are indicated by 0.
(§2) TR1L-4 and TR1L-12 were isolated from a human liver two-hybrid cDNA library (Clontech) created in pGad10. The library was screened with human full length TRF1 cDNA fused to LexA (LexA-TRF1) [Bianchi et al., EMBO J., 16:1785-1794 (1997)] in the yeast strain L40 as described [Hollenberg et al., Mol. Cell Biol., 15:3813-3822 (1995)]. Two-hybrid analysis was performed as described by Bianchi et al. [EMBO J., 16:1785-1794 (1997)]. β-galactosidase assays for the two-hybrid analysis was performed as described by Bianchi et al. [EMBO J., 16:1785-1794 (1997)].
T2 sequence (P54274 1-67): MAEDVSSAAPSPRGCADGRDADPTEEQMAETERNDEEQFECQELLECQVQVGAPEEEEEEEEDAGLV

[3] = target: T3, TRF1 (Homo sapiens, UniProt P54274); assay: Yeast two-hybrid analysis, β-galactosidase assay; assay type: cell-based; settings: ΔN66-LexA (deletion of the acidic domain of TRF1)
T3 construct: expressed in transfected cells; host or cells: yeast strain L40
T3 sequence (P54274 67-439): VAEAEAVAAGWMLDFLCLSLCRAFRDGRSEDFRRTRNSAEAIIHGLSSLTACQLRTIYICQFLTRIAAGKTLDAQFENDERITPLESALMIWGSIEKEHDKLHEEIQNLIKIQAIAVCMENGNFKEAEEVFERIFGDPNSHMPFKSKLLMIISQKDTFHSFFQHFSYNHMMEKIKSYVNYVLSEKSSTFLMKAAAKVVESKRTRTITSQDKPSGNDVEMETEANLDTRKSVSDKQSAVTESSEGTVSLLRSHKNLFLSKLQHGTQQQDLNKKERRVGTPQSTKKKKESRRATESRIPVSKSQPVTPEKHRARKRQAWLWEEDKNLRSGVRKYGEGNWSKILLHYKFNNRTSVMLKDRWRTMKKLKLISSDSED
Procedure: as §1, §2

[4] = test system: TRF1; assay: Gel-shift assay for TTAGGG repeat binding activity of TRF1; assay type: biochemical
Procedure: The Gel-shift assay for the TTAGGG repeat binding activity of TRF1 used a duplex [TTAGGG]12 DNA as a probe. Binding reactions contained the components indicated above the lanes. Tankyrase was varied from 2.5 to 200 ng per 20 μl incubation in three-fold dilution steps (triangles). TRF1 was either present at 13 ng (+) or varied from 120 to 13 ng in three-fold dilution steps (triangle). NAD^+ was at 0 (−) or 0.2 mM (+). The asterisks indicate the position of TRF1-containing complexes as determined by antibody super-shift experiments.
Gel-shift assays were performed using an end-labeled 142 bp Hindlll-Asp718 fragment from plasmid pTH12 [Z. Zhong, et al, Mol. Cell. Biol. 12:4834 (1992)] containing 12 tandem TTAGGG repeats. Baculovirus-derived TRF1 (13 to 120 ng) [Bianchi et al. EMBO J. 16:1785 (1997)] was incubated for 30 minutes at room temperature in a 20 μl reaction containing 20 mM Hepes-KOH (pH 7.9), 100 mM KCL, 0.5 mM DTT, 5% glycerol, 0.1% NP40, 100 ng sheared E. coli DNA, 100 ng β-casein, and 1 ng of labeled probe. In some cases, reactions were supplemented with NAD^+ (0.2 mM) and baculovirus-derived human tankyrase (2.5 to 200 ng). Samples were fractionated on a 0.7% agarose gel run in 0.1× TBE (8.9 mM Tris-base, 8.9 mM Boric acid, and 0.2 mM EDTA) at 130 volts for 1 hour at room temperature. Gels were dried onto Whatman DE81 paper and autoradiographed.

Q: `NC(=O)c1cccc(N)c1` [3AB, 3-aminobenzamide] was tested. Which “Modification (ADP-ribosylation) of TRF1 and tankyrase by tankyrase” value [1] did it give?
A: Its value is “strongly inhibited; also recorded: inhibited”.

B1: GAD-tankyrase: 10-ANK repeat domain of TR1L-12 (ANK repeats 9-19) fused to the GAL4 activation domain (protein)
chain: FTPLHEAASKNRVEVCSLLLSHGADPTLVNCHGKSAVDMAPTPELRERLTYEFKGHSLLQAAREADLAKVKKTLALEIINFKQPQSHETALHCAVASLHPKRKQVTELLLRKGANVNEKNKDFMTPLHVAAERAHNDVMEVLHKHGAKMNALDTLGQTALHRAALAGHLQTCRLLLSYGSDPSIISLQGFTAAQMGNEAVQQILSESTPIRTSDVDYRLLEASKAGDLETVKQLCSSQNVNCRDLEGRHSTPLHFAAGYNRVSVVEYLLHHGADVHAKDKGGLVPLHNACSYGHYEVAELLVRHGASVNVADLWKFTPLHEAAAKGKYEICKLLLKHGADPTKKNRDGNTPLDLVKEGDTDI
modifications: left off: large carriers
Q: Which results are given for B1?
A: β-galactosidase levels (lacZ reporter activation) [2]: 50.4 units; Interaction with TRF1 lacking the acidic domain [3]: abolished

B2: tankyrase: human TRF1-binding protein of SEQ ID NO:2 with ANK repeats, SAM motif and PARP-related domain; recombinant, baculovirus-derived (protein)
chain: MAASRRSQHHHHHHQQQLQPAPGASAPPPPPPPPLSPGLAPGTTPASPTASGLAPFASPRHGLALPEGDGSRDPPDRPRSPDPVDGTSCCSTTSTICTVAAAPVVPAVSTSSAAGVAPNPAGSGSNNSPSSSSSPTSSSSSSPSSPGSSLAESPEAAGVSSTAPLGPGAAGPGTGVPAVSGALRELLEACRNGDVSRVKRLVDAANVNAKDMAGRKSSPLHFAAGFGRKDVVEHLLQMGANVHARDDGGLIPLHNACSFGHAEVVSLLLCQGADPNARDNWNYTPLHEAAIKGKIDVCIVLLQHGADPNIRNTDGKSALDLADPSAKAVLTGEYKKDELLEAARSGNEEKLMALLTPLNVNCHASDGRKSTPLHLAAGYNRVRIVQLLLQHGADVHAKDKGGLVPLHNACSYGHYEVTELLLKHGACVNAMDLWQFTPLHEAASKNRVEVCSLLLSHGADPTLVNCHGKSAVDMAPTPELRERLTYEFKGHSLLQAAREADLAKVKKTLALEIINFKQPQSHETALHCAVASLHPKRKQVTELLLRKGANVNEKNKDFMTPLHVAAERAHNDVMEVLHKHGAKMNALDTLGQTALHRAALAGHLQTCRLLLSYGSDPSIISLQGFTAAQMGNEAVQQILSESTPIRTSDVDYRLLEASKAGDLETVKQLCSSQNVNCRDLEGRHSTPLHFAAGYNRVSVVEYLLHHGADVHAKDKGGLVPLHNACSYGHYEVAELLVRHGASVNVADLWKFTPLHEAAAKGKYEICKLLLKHGADPTKKNRDGNTPLDLVKEGDTDIQDLLKGDAALLDAAKKGCLARVQKLCTPENINCRDTQGRNSTPLHLAAGYNNLEVAEYLLEHGADVNAQDKGGLIPLHNAASYGHVDIAALLIKYNTCVNATDKWAFTPLHEAAQKGRTQLCALLLAHGADPTMKNQEGQTPLDLATADDIRALLIDAMPPEALPTCFKPQATVVSASLISPASTPSCLSAASSIDNLTGPLAELAVGGASNAGDGAAGTERKEGEVAGLDMNISQFLKSLGLEHLRDIFETEQITLDVLADMGHEELKEIGINAYGHRHKLIKGVERLLGGQQGTNPYLTFHCVNQGTILLDLAPEDKEYQSVEEEMQSTIREHRDGGNAGGIFNRYNVIRIQKVVNKKLRERFCHRQKEVSEENHNHHNERMLFHGSPFINAIIHKGFDERHAYIGGMFGAGIYFAENSSKSNQYVYGIGGGTGCPTHKDRSCYICHRQMLFCRVTLGKSFLQFSTMKMAHAPPGHHSVIGRPSVNGLAYAEYVIYRGEQAYPEYLITYQIMKPEAPSQTATAAEQKT
Q: How did the “TRF1 DNA binding activity on [TTAGGG]12 probe” value (“TRF1 DNA binding activity” below) ([4]; NAD+ included (0.2 mM), tankyrase 2.5 to 200 ng per 20 μl, TRF1 13 ng) turn out when B2 was run?
A: Its value is “drastic reduction”.

Q: And the “TRF1 DNA binding activity” value ([4]; NAD+ included (0.2 mM), tankyrase 2.5 to 200 ng per 20 μl, TRF1 13 ng, listed as Tankyrase)?
A: The value was “inhibition”.

Q: What about the “TRF1 DNA binding activity” value ([4]; absence of NAD+, effect also seen with total insect cell protein (non-specific)) of the same molecule?
A: Its value is “slight stimulation”.
